Experiment [1] has as its target VLP2 (virus-like particles, capsid protein particles of AAV serotype 2) (AAV serotype 2 (AAV2)) (UniProt P03135). Description: ELISA on immobilised VLP2 (purified protein); start of alkali treatment, the reference of the ratio. In general terms: In an ELISA, binding on a coated surface is turned into a signal by an enzyme label.
Experiment [2] shares this target. Description: ELISA on immobilised VLP2 (purified protein, 5 µg/mL); start of alkali treatment, the reference of the ratio.
Experiment [3] shares this target. Description: ELISA on immobilised VLP2 (purified protein); A450 after 1:1 0.5 M NaOH, 30°C, 30 min divided by A450 at 0 time.
The target is the same in experiment [4]. The experiment in a line: ELISA on immobilised VLP2 (purified protein); A450 after 1:1 0.5 M NaOH, 30°C, 90 min divided by A450 at 0 time.
Experiment [5] shares this target. Description: ELISA on immobilised VLP2 (culture supernatant); A450 after 1:1 1 M NaOH, 15 min, 30°C divided by A450 untreated.
The target is the same in experiment [6]. The experiment in a line: ELISA on immobilised VLP2 (purified protein, 5 µg/mL); A450 after 1:1 1 M NaOH with 1 mM CaCl2, 30°C, 30 min divided by A450 at 0 time.
Experiment [7] shares this target. The experiment in a line: ELISA on immobilised VLP2 (purified protein, 5 µg/mL); A450 after 1:1 1 M NaOH with 1 mM CaCl2, 30°C, 60 min divided by A450 at 0 time.
The target is the same in experiment [8]. The experiment in a line: ELISA on immobilised VLP2 (purified protein, 5 µg/mL); A450 after 1:1 1 M NaOH with 1 mM CaCl2, 30°C, 30 min divided by A450 at 0 time. The source holds these as a separate data set.
Experiment [9] shares this target. Description: ELISA on immobilised VLP2 (purified protein, 5 µg/mL); A450 after 1:1 1 M NaOH with 1 mM CaCl2, 30°C, 45 min divided by A450 at 0 time.
The target is the same in experiment [10]. The experiment in a line: ELISA on immobilised VLP2 (purified protein, 5 µg/mL); A450 after 1:1 1 M NaOH with 1 mM CaCl2, 30°C, 20 min divided by A450 at 0 time.
Experiment [11] has the same target. The experiment in a line: ELISA on immobilised VLP2 (purified protein, 5 µg/mL); A450 after 1:1 1 M NaOH with 1 mM CaCl2, 30°C, 30 min divided by A450 at 0 time. The source holds these as a separate data set.
Experiment [12] shares this target. The experiment in a line: ELISA on immobilised VLP2 (purified protein, 5 µg/mL); A450 after 1:1 1 M NaOH with 1 mM CaCl2, 30°C, 60 min divided by A450 at 0 time. The source holds these as a separate data set.
For experiment [13] the target is unchanged. Description: ELISA on immobilised VLP2 (purified protein, 5 µg/mL); A450 after 1:1 1 M NaOH with 1 mM CaCl2, 30°C, 30 min divided by A450 at 0 time. The source holds these as a separate data set.
Experiment [14] shares this target. The experiment in a line: ELISA on immobilised VLP2 (purified protein, 5 µg/mL); A450 after 1:1 1 M NaOH with 1 mM CaCl2, 30°C, 60 min divided by A450 at 0 time. The source holds these as a separate data set.
Experiment [15] has the same target. The experiment in a line: ELISA on immobilised VLP2 (purified protein); A450 after 1:1 0.5 M NaOH, 30°C, 30 min divided by A450 at 0 time. This is another data set of the same source.
The target is the same in experiment [16]. Description: ELISA on immobilised VLP2 (purified protein); A450 after 1:1 0.5 M NaOH, 30°C, 60 min divided by A450 at 0 time.
Experiment [17] has the same target. Description: ELISA on immobilised VLP2 (culture supernatant, anti-His detection); A450 after 1:1 0.5 M NaOH, 30 min, 30°C divided by A450 untreated.
Experiment [18] shares this target. The experiment in a line: ELISA on immobilised VLP2 (culture supernatant); A450 after 1:1 0.1 M glycine-NaOH pH 10.0, 15 min, 51.3°C divided by A450 untreated.
Experiment [19] shares this target. The experiment in a line: ELISA on immobilised VLP2 (purified protein); A450 after 1:1 0.1 M glycine-NaOH pH 10.0, 15 min, 70°C divided by A450 untreated.
The target is the same in experiment [20]. The experiment in a line: ELISA on immobilised VLP2 (purified protein); A450 after 1:1 0.1 M glycine-NaOH pH 10.0, 15 min, 55.7°C divided by A450 untreated.
For experiment [21] the target is unchanged. The experiment in a line: ELISA on immobilised VLP2 (purified protein); A450 after 1:1 0.1 M glycine-NaOH pH 10.0, 15 min, 60.1°C divided by A450 untreated.
The target is the same in experiment [22]. Description: ELISA on immobilised VLP2 (purified protein); A450 after 1:1 0.1 M glycine-NaOH pH 10.0, 15 min, 66.1°C divided by A450 untreated.

Positions count from the first letter of the chain named. Numbers in names are those of the source.

Chain of UniProt P03135 (P03135 whole entry): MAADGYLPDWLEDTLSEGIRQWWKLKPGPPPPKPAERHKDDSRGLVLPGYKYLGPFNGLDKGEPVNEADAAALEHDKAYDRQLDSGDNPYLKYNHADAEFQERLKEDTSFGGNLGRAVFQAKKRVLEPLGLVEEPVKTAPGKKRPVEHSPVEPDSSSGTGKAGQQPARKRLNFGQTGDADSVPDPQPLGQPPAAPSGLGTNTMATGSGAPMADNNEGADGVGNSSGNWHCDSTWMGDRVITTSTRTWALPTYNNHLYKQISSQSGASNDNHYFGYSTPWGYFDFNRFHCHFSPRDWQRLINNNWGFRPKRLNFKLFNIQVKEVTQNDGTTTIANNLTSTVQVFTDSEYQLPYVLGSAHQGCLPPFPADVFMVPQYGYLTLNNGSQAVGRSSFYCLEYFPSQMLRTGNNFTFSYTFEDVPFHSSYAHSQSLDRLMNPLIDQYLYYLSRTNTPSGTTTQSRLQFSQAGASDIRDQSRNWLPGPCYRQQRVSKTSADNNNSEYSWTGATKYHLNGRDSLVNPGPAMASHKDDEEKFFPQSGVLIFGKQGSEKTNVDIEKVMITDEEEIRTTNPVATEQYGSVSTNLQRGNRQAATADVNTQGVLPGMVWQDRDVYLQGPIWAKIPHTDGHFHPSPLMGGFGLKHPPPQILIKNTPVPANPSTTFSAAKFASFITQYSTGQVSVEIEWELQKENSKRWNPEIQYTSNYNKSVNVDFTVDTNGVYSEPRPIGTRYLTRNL

B1: AVR25c (AVR25a with K467N) (receptor)
chain: MGSAGESDQITLPKHEAQLKVYVLLVPPKGEASTYDWQLITHPRDYSGEMEGEHSQILKLSNLTPGLYEYRAVVEGQNAHSEGYVNVTVEPGPRKNRPPIAIVSPQFQEISLPTTSAVIDGSQSTDDDKIVQYHWEELKGPLREEKISEDTPILKLSNLVPGNYTFRLTVVDTDGATDSTTADLTVNKAVDHHHHHH
Consider B1, for which the Remaining activity [%] in experiment [1] was found to be 100%; in [2] it was 100%; in experiment [3], 91.2%; in experiment [4] it was 66.9%; in experiment [5], 33.5%; in [6] it was 2.87%. Further, the Remaining activity [%] in [7] is 0.197%; in experiment [8], 5.28%; in experiment [9] it was 0%; in [10], 12.1%; in experiment [11] it was 22%; in experiment [12] it was 2.19%. Besides, the Remaining activity [%] came to 16.3% in experiment [13] and 1.96% in experiment [14].

B2: AVR25a (AVR21 with N329K, E401G, T426A, A461P) (receptor)
chain: B1 chain with N158Q
On to B2, for which the Remaining activity [%] was 100% in experiment [1]; 100% in experiment [15]; 47.9% in [16]; 62.3% in experiment [3]; 0% in experiment [4].

B3: AVR31 (AVR25c with G314D, I366F, V394A, K455R, K497E, V499I) (receptor)
chain: B1 chain with G5D, I57F, V85A, K146R, K188E, V190I
Consider B3, for which the Remaining activity [%] in experiment [2] came to 100%; in [11], 48.3%; in experiment [12], 10.6%; in [13] it was 53.8%; in experiment [14] it was 13.3%.

B4: AAV-binding protein AVR21 (receptor)
chain: B1 chain with K20N, G92E, A117T, P152A, N158Q
B4: the Remaining activity [%] in [1] came out at 100%; in [2], 100%; in experiment [15], 16.9%; in [16] it was 0%; in experiment [17], 26.2%; in experiment [13] it was 1.53%. Also, the Remaining activity [%] in experiment [14] turned out to be 0.694%.

B5: AVR8g with Y331H, F379S, K467N, A491T (receptor)
chain: MGSAGESDQITLPKNEVQLNAHVLQEPPKGETCTYDWQLITHPRDYSGEMEGEHSQILKLSNLTPGLYESKVIVEGQNAHSEGYVNVTVEPEPRKNRPPIAIVSPQFQEISLPTTSTVIDGSQSTDDDKIVQYHWEELKGPLREEKISEDTAILKLSNLVPGNYTFRLTVVDSDGATDSTTTNLTVNKAVDHHHHHH
The molecule B5 registered a Remaining activity [%] in experiment [18] of 28.1%.

B6: AAV-binding protein AVR8g (receptor)
chain: B5 chain with H22Y, S70F, N158K, T182A
For the molecule B6, the Remaining activity [%] was 3.77% in [19]; 0.837% in experiment [20]; 4.18% in [21]; 0% in [22]; 8.8% in [18].
